In publication PMC9601964:

Target: T1, RihR (XRE-family regulator) (Azorhizobium caulinodans ORS571) (UniProt A8IKA5)
T1 sequence: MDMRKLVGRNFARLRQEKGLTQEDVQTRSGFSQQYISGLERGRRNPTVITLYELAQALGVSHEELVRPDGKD
Test: EMSA
Conditions: 50 mM Tris-HCl pH 8.3, 0.25 M KCl, 2.5 mM DTT, 5 mM MgCl2, 0.25 mg/mL BSA, 0.05 mg/mL poly(dI-dC), 2.5 mM EDTA, 1% glycerol; 20 uL, 20 min, room temperature; 6%

Sequence: CGGAATTCATCGCGGTGGTATTTTTGCGAGGAAGGCCGCGTTGGAAAACGATAGTCGGTGCTCGTTCATGCCGGCAAATGAGAAGATCGCCCATAGGTATGCAAAAATGATATGATAACAGCTGACCAGCTTTAGCCCGTGCGGACGAGGGGGAGAGGATGCGTTTCAGTCATCTAGAGC (double strand) [non-specific control promoter (Pcontrol)]
- binding: no binding
